Reference: US20220033501A1 (SHANGHAI PHARMAEXPLORER, published 2022)

T1: monkey TIM-3 extracellular domain protein with hFc tag (cTIM-3-hFc) (monkey)
T1 construct: not shown: human IgG Fc fragment (hFc) of the pCpC vector
T1 chain: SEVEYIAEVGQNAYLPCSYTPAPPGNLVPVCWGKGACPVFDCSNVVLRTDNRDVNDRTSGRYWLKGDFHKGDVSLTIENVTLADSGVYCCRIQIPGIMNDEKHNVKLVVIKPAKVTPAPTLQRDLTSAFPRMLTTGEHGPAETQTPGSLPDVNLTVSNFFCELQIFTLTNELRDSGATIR

T2: human TIM-3 on CHOK1 stable cell line (CHOK1-hTIM-3) (human, UniProt Q8TDQ0 22-301)
T2 sequence: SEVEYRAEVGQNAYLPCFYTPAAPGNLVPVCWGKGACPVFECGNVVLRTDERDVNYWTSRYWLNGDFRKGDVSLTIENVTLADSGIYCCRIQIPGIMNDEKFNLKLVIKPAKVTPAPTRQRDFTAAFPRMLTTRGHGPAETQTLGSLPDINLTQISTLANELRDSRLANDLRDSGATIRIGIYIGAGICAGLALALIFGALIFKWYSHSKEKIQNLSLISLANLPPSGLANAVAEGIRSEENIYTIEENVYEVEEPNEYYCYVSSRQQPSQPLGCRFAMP

T3: monkey TIM-3 on CHOK1 stable cell line (CHOK1-cTIM-3) (monkey)
T3 chain: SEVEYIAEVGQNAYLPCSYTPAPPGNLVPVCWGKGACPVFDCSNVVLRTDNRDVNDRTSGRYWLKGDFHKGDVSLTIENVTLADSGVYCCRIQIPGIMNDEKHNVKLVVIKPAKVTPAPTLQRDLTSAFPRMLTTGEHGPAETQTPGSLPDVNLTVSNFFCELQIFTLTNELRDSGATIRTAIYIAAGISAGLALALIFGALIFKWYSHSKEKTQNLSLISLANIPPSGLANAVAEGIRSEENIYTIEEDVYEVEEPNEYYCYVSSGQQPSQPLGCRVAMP

T4: murine TIM-3 extracellular domain protein with hFc tag (mTIM-3-hFc) (mouse, UniProt Q8VIM0 29-191)
T4 construct: also called mouse TIM-3 extracellular domain protein; not shown: human IgG Fc fragment (hFc) of the pCpC vector
T4 chain: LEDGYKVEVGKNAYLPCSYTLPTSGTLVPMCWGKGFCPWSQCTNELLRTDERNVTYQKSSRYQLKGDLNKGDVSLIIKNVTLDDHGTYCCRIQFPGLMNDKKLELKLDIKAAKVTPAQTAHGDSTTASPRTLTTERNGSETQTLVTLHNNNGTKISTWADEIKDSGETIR


How the values were obtained:
[1] = biological target: T1, monkey TIM-3 extracellular domain …; test: ELISA, coated monkey TIM-3 ECD protein, 0.6667 nM antibody
[2] = biological target: T2, human TIM-3 on CHOK1 stable cell line …; test: FACS, CHOK1-hTIM-3 cells, 0.32 nM antibody
[3] = biological target: T3, monkey TIM-3 on CHOK1 stable cell line …; test: FACS, CHOK1-cTIM-3 cells, 8 nM antibody
[4] = biological target: T4, murine TIM-3 extracellular domain …; test: ELISA, coated mouse TIM-3 ECD protein, 0.0067 nM antibody
[5] = biological target: T3, monkey TIM-3 on CHOK1 stable cell line …; test: FACS, CHOK1-cTIM-3 cells, 0.32 nM antibody

| Binder | OD450 [1] | Mean fluorescence intensity [2] | Mean fluorescence intensity [3] | OD450 [4] | Mean fluorescence intensity [5] |
| --- | --- | --- | --- | --- | --- |
| 18D2H2 fully human TIM-3 antibody (human IgG4, kappa) (antibody, V domains shown) VH: EVQLVESGGDLVQPGGSLRLSCAASGFTFSTYWMTWVRQAPGRGLEWVANIKQDGSAKYYVDSVKGRFTLSRDDAKNSLYLQMNSLRAEDTAVYYCARGSNWFDYWGQGTLVTVSS VL: ETVMTQSPATLSVSPGERATLSCRANQNVYSNLAWYQQKPGQAPRLLIYDASTRATGFPARFSGSGSGTEFTLTISSLQSEDFAVYYCQQYNNWPLTFGGGTKVEIK | 3.16 | 93.1 | 475 | 0.22 | 127 |
| 34B6D8 fully human TIM-3 antibody (human IgG4, kappa) (antibody, V domains shown) VH: EVQLVESGGGLVQPGGSLRLSCAASGFTFSTYWMTWVRQAPGKRLEWVANIKQGGGDKYYVDSVKGRFTISTDNAKNSLYLQMNSLRAEDTAVYYCARGSNWFDPWGQGTLVTVSS VL: EIVMTQSPATLSMSPGERATLSCRASQSVYDNLAWYQQKPGQAPRLLIYGASTRATGIPARFSGSGSGTEFTLTISSLQSEDFALYYCQQYTHWPITFGQGTRLEIK | 3.37 | 76.9 | 340 | 0.24 | 109 |
| 39E5H1 fully human TIM-3 antibody (human IgG4, kappa) (antibody, V domains shown) VH: EVQLVESGGGLVQPGGSLRLSCAASGFTFSSYWMSWVRQAPGKGLEWVANIKRGGSERYYVDSVKGRFTISGDNAKNSVYLQMNSLRAEDTAVYYCARGSNWFDPWGQGTLVTVSS VL: ETVMTQSPAILSVSPGERATLSCRASQSVYSNLAWYQQKLGQAPRLLIYDASTRATGIPARFSGSGSGTEFTLTISSLQSEDFAVYYCQQYNNWPITFGQGTRLEIK | 3.23 | 73.1 | 349 | 0.23 | 132 |
